Assay results reported in PMC10786891, “Massively parallel profiling of RNA-targeting CRISPR-Cas13d”.

Biological target: T1, EsCas13d, nuclease-dead (Eubacterium siraeum, UniProt B0MS50, R295A;H300A;R849A;H854A)
T1 sequence: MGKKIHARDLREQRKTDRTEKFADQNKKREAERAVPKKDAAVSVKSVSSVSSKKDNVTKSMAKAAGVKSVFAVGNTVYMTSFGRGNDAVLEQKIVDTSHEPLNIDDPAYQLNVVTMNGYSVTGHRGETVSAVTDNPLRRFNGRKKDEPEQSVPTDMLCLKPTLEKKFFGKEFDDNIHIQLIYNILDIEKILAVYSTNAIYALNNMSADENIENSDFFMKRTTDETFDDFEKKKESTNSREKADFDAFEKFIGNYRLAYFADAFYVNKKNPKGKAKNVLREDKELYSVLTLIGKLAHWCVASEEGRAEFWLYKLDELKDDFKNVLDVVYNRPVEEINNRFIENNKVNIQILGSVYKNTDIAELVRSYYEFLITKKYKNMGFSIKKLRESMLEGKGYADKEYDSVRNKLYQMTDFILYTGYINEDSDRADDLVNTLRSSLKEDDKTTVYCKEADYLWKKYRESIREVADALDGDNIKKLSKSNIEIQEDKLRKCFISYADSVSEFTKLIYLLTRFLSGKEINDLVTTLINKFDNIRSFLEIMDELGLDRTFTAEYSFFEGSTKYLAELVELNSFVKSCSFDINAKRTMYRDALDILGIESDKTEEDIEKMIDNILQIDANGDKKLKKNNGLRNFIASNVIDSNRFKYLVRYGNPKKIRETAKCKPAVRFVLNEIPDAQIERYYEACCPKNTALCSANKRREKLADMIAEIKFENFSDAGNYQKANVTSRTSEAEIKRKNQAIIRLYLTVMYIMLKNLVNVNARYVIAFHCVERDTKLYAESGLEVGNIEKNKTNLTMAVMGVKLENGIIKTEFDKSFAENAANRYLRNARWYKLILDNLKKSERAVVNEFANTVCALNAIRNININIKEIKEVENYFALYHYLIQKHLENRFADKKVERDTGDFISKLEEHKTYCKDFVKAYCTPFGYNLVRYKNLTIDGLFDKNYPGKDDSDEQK
Assay: crRNA (strand 1, pre-loaded); Mg2+; 40 mM Tris-HCl pH 7.5, 150 mM NaCl, 6 mM MgCl2, 1 mM DTT, 0.1% Tween-20, 0.2 mg/ml BSA; 25 C; 10 min per concentration, then washed
Conditions: tags: His6-TwinStrep-SUMO cleaved; N-terminal SNAP kept (SNAP-Surface 488); label: 3' end held by stalled T7 RNA polymerase

Binder | Kd
target 2 MT 5'PFS CAU 3'PFS CCA (mixed) RNA 1: CACCCGUGCAAAAUUGCAGGGGUCUAAAACCUUCUCCAAAUUGUUUCAUCCU RNA 2: GGGAAUGGAUCCACAUCUACGAAUUCCAUAGGAUGAAACAAUUUGGAGAAGCCAAGAUCGGAAGAGCACACGU | 11.5 ± 1.6 nM
target 2 MT 5'PFS AGU 3'PFS UCU (mixed) RNA 1: CACCCGUGCAAAAUUGCAGGGGUCUAAAACCUUCUCCAAAUUGUUUCAUCCU RNA 2: GGGAAUGGAUCCACAUCUACGAAUUCAGUAGGAUGAAACAAUUUGGAGAAGUCUAGAUCGGAAGAGCACACGU | 21.3 ± 3.4 nM
target 2 MT 5'PFS GUA 3'PFS UCG (mixed) RNA 1: CACCCGUGCAAAAUUGCAGGGGUCUAAAACCUUCUCCAAAUUGUUUCAUCCU RNA 2: GGGAAUGGAUCCACAUCUACGAAUUCGUAAGGAUGAAACAAUUUGGAGAAGUCGAGAUCGGAAGAGCACACGU | 9.5 ± 0.7 nM
target 2 MT 5'PFS GGC 3'PFS UAC (mixed) RNA 1: CACCCGUGCAAAAUUGCAGGGGUCUAAAACCUUCUCCAAAUUGUUUCAUCCU RNA 2: GGGAAUGGAUCCACAUCUACGAAUUCGGCAGGAUGAAACAAUUUGGAGAAGUACAGAUCGGAAGAGCACACGU | 18.9 ± 3.5 nM
target 2 MT 5'PFS AUA 3'PFS UAA (mixed) RNA 1: CACCCGUGCAAAAUUGCAGGGGUCUAAAACCUUCUCCAAAUUGUUUCAUCCU RNA 2: GGGAAUGGAUCCACAUCUACGAAUUCAUAAGGAUGAAACAAUUUGGAGAAGUAAAGAUCGGAAGAGCACACGU | 5.5 ± 1.1 nM
target 2 MT 5'PFS AGG 3'PFS AGU (mixed) RNA 1: CACCCGUGCAAAAUUGCAGGGGUCUAAAACCUUCUCCAAAUUGUUUCAUCCU RNA 2: GGGAAUGGAUCCACAUCUACGAAUUCAGGAGGAUGAAACAAUUUGGAGAAGAGUAGAUCGGAAGAGCACACGU | 4.04 ± 0.32 nM
target 2 MT 5'PFS GUA 3'PFS AAA (mixed) RNA 1: CACCCGUGCAAAAUUGCAGGGGUCUAAAACCUUCUCCAAAUUGUUUCAUCCU RNA 2: GGGAAUGGAUCCACAUCUACGAAUUCGUAAGGAUGAAACAAUUUGGAGAAGAAAAGAUCGGAAGAGCACACGU | 5.5 ± 0.7 nM
target 2 MT 5'PFS GGC 3'PFS CAG (mixed) RNA 1: CACCCGUGCAAAAUUGCAGGGGUCUAAAACCUUCUCCAAAUUGUUUCAUCCU RNA 2: GGGAAUGGAUCCACAUCUACGAAUUCGGCAGGAUGAAACAAUUUGGAGAAGCAGAGAUCGGAAGAGCACACGU | 12.1 ± 1.4 nM
target 2 MT 5'PFS UAG 3'PFS AGC (mixed) RNA 1: CACCCGUGCAAAAUUGCAGGGGUCUAAAACCUUCUCCAAAUUGUUUCAUCCU RNA 2: GGGAAUGGAUCCACAUCUACGAAUUCUAGAGGAUGAAACAAUUUGGAGAAGAGCAGAUCGGAAGAGCACACGU | 1.91 ± 0.21 nM
target 2 MT 5'PFS GAC 3'PFS CGG (mixed) RNA 1: CACCCGUGCAAAAUUGCAGGGGUCUAAAACCUUCUCCAAAUUGUUUCAUCCU RNA 2: GGGAAUGGAUCCACAUCUACGAAUUCGACAGGAUGAAACAAUUUGGAGAAGCGGAGAUCGGAAGAGCACACGU | 8.9 ± 1 nM
target 2 MT 5'PFS AUU 3'PFS CGC (mixed) RNA 1: CACCCGUGCAAAAUUGCAGGGGUCUAAAACCUUCUCCAAAUUGUUUCAUCCU RNA 2: GGGAAUGGAUCCACAUCUACGAAUUCAUUAGGAUGAAACAAUUUGGAGAAGCGCAGAUCGGAAGAGCACACGU | 7.8 ± 0.6 nM
target 2 MT 5'PFS UAG 3'PFS AGA (mixed) RNA 1: CACCCGUGCAAAAUUGCAGGGGUCUAAAACCUUCUCCAAAUUGUUUCAUCCU RNA 2: GGGAAUGGAUCCACAUCUACGAAUUCUAGAGGAUGAAACAAUUUGGAGAAGAGAAGAUCGGAAGAGCACACGU | 2.53 ± 0.33 nM
target 2 MT 5'PFS AUA 3'PFS UAU (mixed) RNA 1: CACCCGUGCAAAAUUGCAGGGGUCUAAAACCUUCUCCAAAUUGUUUCAUCCU RNA 2: GGGAAUGGAUCCACAUCUACGAAUUCAUAAGGAUGAAACAAUUUGGAGAAGUAUAGAUCGGAAGAGCACACGU | 7.1 ± 1.4 nM
target 2 MT 5'PFS GGC 3'PFS CAA (mixed) RNA 1: CACCCGUGCAAAAUUGCAGGGGUCUAAAACCUUCUCCAAAUUGUUUCAUCCU RNA 2: GGGAAUGGAUCCACAUCUACGAAUUCGGCAGGAUGAAACAAUUUGGAGAAGCAAAGAUCGGAAGAGCACACGU | 8.9 ± 1.7 nM
target 2 MT 5'PFS CUU 3'PFS AUU (mixed) RNA 1: CACCCGUGCAAAAUUGCAGGGGUCUAAAACCUUCUCCAAAUUGUUUCAUCCU RNA 2: GGGAAUGGAUCCACAUCUACGAAUUCCUUAGGAUGAAACAAUUUGGAGAAGAUUAGAUCGGAAGAGCACACGU | 3.9 ± 0.4 nM
target 2 MT 5'PFS GUA 3'PFS AAG (mixed) RNA 1: CACCCGUGCAAAAUUGCAGGGGUCUAAAACCUUCUCCAAAUUGUUUCAUCCU RNA 2: GGGAAUGGAUCCACAUCUACGAAUUCGUAAGGAUGAAACAAUUUGGAGAAGAAGAGAUCGGAAGAGCACACGU | 7 ± 0.6 nM
target 2 MT 5'PFS GUA 3'PFS AAU (mixed) RNA 1: CACCCGUGCAAAAUUGCAGGGGUCUAAAACCUUCUCCAAAUUGUUUCAUCCU RNA 2: GGGAAUGGAUCCACAUCUACGAAUUCGUAAGGAUGAAACAAUUUGGAGAAGAAUAGAUCGGAAGAGCACACGU | 5.8 ± 0.6 nM
target 2 MT 5'PFS CAU 3'PFS CAG (mixed) RNA 1: CACCCGUGCAAAAUUGCAGGGGUCUAAAACCUUCUCCAAAUUGUUUCAUCCU RNA 2: GGGAAUGGAUCCACAUCUACGAAUUCCAUAGGAUGAAACAAUUUGGAGAAGCAGAGAUCGGAAGAGCACACGU | 3.25 ± 0.3 nM
target 2 MT 5'PFS AGU 3'PFS UCC (mixed) RNA 1: CACCCGUGCAAAAUUGCAGGGGUCUAAAACCUUCUCCAAAUUGUUUCAUCCU RNA 2: GGGAAUGGAUCCACAUCUACGAAUUCAGUAGGAUGAAACAAUUUGGAGAAGUCCAGAUCGGAAGAGCACACGU | ~51 nM
target 2 MT 5'PFS GCU 3'PFS CCG (mixed) RNA 1: CACCCGUGCAAAAUUGCAGGGGUCUAAAACCUUCUCCAAAUUGUUUCAUCCU RNA 2: GGGAAUGGAUCCACAUCUACGAAUUCGCUAGGAUGAAACAAUUUGGAGAAGCCGAGAUCGGAAGAGCACACGU | 17.9 ± 3.4 nM
target 2 MT 5'PFS GGC 3'PFS CAC (mixed) RNA 1: CACCCGUGCAAAAUUGCAGGGGUCUAAAACCUUCUCCAAAUUGUUUCAUCCU RNA 2: GGGAAUGGAUCCACAUCUACGAAUUCGGCAGGAUGAAACAAUUUGGAGAAGCACAGAUCGGAAGAGCACACGU | 15.8 ± 3.1 nM
target 2 MT 5'PFS GGC 3'PFS CAU (mixed) RNA 1: CACCCGUGCAAAAUUGCAGGGGUCUAAAACCUUCUCCAAAUUGUUUCAUCCU RNA 2: GGGAAUGGAUCCACAUCUACGAAUUCGGCAGGAUGAAACAAUUUGGAGAAGCAUAGAUCGGAAGAGCACACGU | 14.4 ± 2 nM
target 2 MT 5'PFS AUA 3'PFS UAC (mixed) RNA 1: CACCCGUGCAAAAUUGCAGGGGUCUAAAACCUUCUCCAAAUUGUUUCAUCCU RNA 2: GGGAAUGGAUCCACAUCUACGAAUUCAUAAGGAUGAAACAAUUUGGAGAAGUACAGAUCGGAAGAGCACACGU | 7.2 ± 1.6 nM
target 2 MT 5'PFS CAU 3'PFS CCG (mixed) RNA 1: CACCCGUGCAAAAUUGCAGGGGUCUAAAACCUUCUCCAAAUUGUUUCAUCCU RNA 2: GGGAAUGGAUCCACAUCUACGAAUUCCAUAGGAUGAAACAAUUUGGAGAAGCCGAGAUCGGAAGAGCACACGU | 4.07 ± 0.31 nM
target 2 MT 5'PFS UAG 3'PFS AGG (mixed) RNA 1: CACCCGUGCAAAAUUGCAGGGGUCUAAAACCUUCUCCAAAUUGUUUCAUCCU RNA 2: GGGAAUGGAUCCACAUCUACGAAUUCUAGAGGAUGAAACAAUUUGGAGAAGAGGAGAUCGGAAGAGCACACGU | 2.74 ± 0.24 nM
target 2 MT 5'PFS AAA 3'PFS UAC (mixed) RNA 1: CACCCGUGCAAAAUUGCAGGGGUCUAAAACCUUCUCCAAAUUGUUUCAUCCU RNA 2: GGGAAUGGAUCCACAUCUACGAAUUCAAAAGGAUGAAACAAUUUGGAGAAGUACAGAUCGGAAGAGCACACGU | ~6.7 nM
target 1 insG 3' of 20,insG 3' of 8 (mixed) RNA 1: CACCCGUGCAAAAAUGCAGGGGUCUAAAACUGAGCGGAUAACCUCUCUAUGG RNA 2: GGGAAUGGAUCCACAUCUACGAAUUCGUACCAGUAGAGAGGUUAUGCCGCUCACCGAGAUCGGAAGAGCACACGU | 40 ± 4 nM
target 1 insC 3' of 16,insG 3' of 7 (mixed) RNA 1: CACCCGUGCAAAAAUGCAGGGGUCUAAAACUGAGCGGAUAACCUCUCUAUGG RNA 2: GGGAAUGGAUCCACAUCUACGAAUUCGUACCAUAGACGAGGUUAUCGCGCUCACCGAGAUCGGAAGAGCACACGU | 66 ± 14 nM
